Five sequences from the supplement of paper PMC12455559 can be followed below.

± gives the standard deviation of the averaged measurements. A value given as a limit tells only on which side of the number the result lay.

Series [1] in a line: PET hydrolysis, aromatic products released after 48 h (umol product/mg enzyme); higher = more PET depolymerization activity. The protocol: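 HTP-purified, SUMO-cleaved, tagless PET hydrolase candidates (5 ug, 1.43 mg/g PET) were incubated 48 h without shaking with 3.5 mg amorphous PET film (aFilm) or crystalline PET powder (cryPow) in 0.5 mL buffer: NaCitrate pH 4.5/5.5, NaPhosphate pH 6.5/7.5, glycine pH 8.5. Incubation was at 40 or 60 C. Aromatic products (TPA, MHET, BHET) in the supernatant were quantified by UV absorbance at 260/280 nm relative to buffer blanks and expressed per mg enzyme. LCC-ICCG was the positive control on every plate.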

Series [2] in a line: purified protein yield per well (BCA); higher = higher soluble expression. An outline of the steps: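 Values under 25 ug (0.1 mg/mL) are below the detection threshold. Purified protein yield per well was quantified with the Pierce Rapid Gold BCA kit after candidate enzymes, expressed in E. coli C41(DE3), were captured on Ni-charged magnetic beads and released by SUMO protease on an OT-2 robot. Cultures were 2 mL autoinduction with 100 µg/mL kanamycin, run 2 h at 37 °C and then 40 h at 18 °C.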

Series [3] can be described thus: melting temperature (DSF); higher = more thermostable. How it is done: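 Candidate PET hydrolases were expressed in E. coli C41(DE3) in 2 mL autoinduction cultures in 24-deep-well plates, Ni-bead purified and released by SUMO protease cleavage on an OT-2 robot. Yield per well was measured by BCA; values below 25 ug (0.1 mg/mL) are below the detection threshold. Melting temperature was measured by differential scanning fluorimetry with Sypro Orange, ramping from 25 C at 0.3 C/step.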

The mark [4] stands for this setting: substrate: cryPow, 40 °C, pH 5.5.
Where [5] appears, read: substrate: cryPow, 40 °C, pH 6.5.
[6] abbreviates: substrate: cryPow, 40 °C, pH 7.5.
Setting [7] is: substrate: cryPow, 40 °C, pH 8.5.
Where [8] appears, read: substrate: cryPow, 60 °C, pH 5.5.
Where [9] appears, read: substrate: cryPow, 60 °C, pH 6.5.
Where [10] appears, read: substrate: cryPow, 60 °C, pH 7.5.
The mark [11] stands for this setting: substrate: cryPow, 60 °C, pH 8.5.
Where [12] appears, read: substrate: cryPow, 40 °C, pH 4.5.
Where [13] appears, read: substrate: aFilm, 40 °C, pH 5.5.
Setting [14] is: substrate: aFilm, 40 °C, pH 6.5.
The mark [15] stands for this setting: substrate: aFilm, 40 °C, pH 7.5.
[16] abbreviates: substrate: aFilm, 60 °C, pH 5.5.
Where [17] appears, read: substrate: aFilm, 60 °C, pH 6.5.
Where [18] appears, read: substrate: aFilm, 60 °C, pH 7.5.

Take “AANPYQRGPAPTAASVAAVTGPFATASVSVPRGNGFGGGVIYYPTDTSQGTFGGLAISPGLNGTWPGIAWLGSRLASQGFIVFGIETNNLNDSPTSRGTQLLAALDYLAQRSSVRSRLDPGRLAVAGHSMGGGGALDAALRRPSLKAAIGNAPYLPSNTLAGNRVPTLIYAMQNDTLVPPSRLTSLYNTIPATTERAYLEITGAGHNYIGQPSTTLARTMIPWLKIFIDNDTRFSQFLCPLADQSGIRQYRSSCPLVPATTRALTAAAG [DP043]”: the PET hydrolysis came out at 12 in series [1] (setting [4]); 39 in series [1] (setting [5]); 96 in series [1] (setting [6]); 115 in series [1] (setting [7]); 7 in series [1] (setting [8]); 62 in series [1] (setting [9]). The PET hydrolysis was 98 in series [1] (setting [10]) and 107 in series [1] (setting [11]). The “purified protein yield per well” value in series [2] was 92 µg. Moreover, in series [3], the melting temperature stood at 67.3 C.
As for “AASPYERGPDPTEQTITAERGPFQVATATVPANSASGFNRGTIYYPTDTSQGTFGAVAIIPGFIEPESTMSWYGPRLASQGFVVFTLEPFSVLNFPDDRANQLLAALDYLTGSSSVRSRVDASRLAVMGHSMGGGGTLRAAEMRPSLQAAIPLAPWHLHGDWRNVRVPTMIQAADNDFIAGVGNHAQPFYQNLTNAPEKAYLLFENYGHMSWISANTPIAKYSIAWLKRYVDDDTRYSKFLCPAPGAPSSTFQEYRHTCPD [DP044]”, the PET hydrolysis in series [1] (setting [4]), in series [1] (setting [5]), in series [1] (setting [6]) and in series [1] (setting [7]) was under 3 in each case. The “purified protein yield per well” value in series [2] came out at 28 µg. The sequence also yielded a melting temperature in series [3] of 69.4 C.
As to “ADLLSQGRPATASSTEKESTPASAAVDGDTGTRWSSTFGDPQWLQVDLGATATLSRIVLRWEAAYARTFRIQTSDDGTAWTTVHSTTTGAGGVQTLDVNGTGRYVRLHGTQRGTLYGYSLWEFQVYGSGDGTPPDGTIPDPTTASLEAAAGPLPTAAYTVPSPSGYGSGTVTYPTSGGAYPGVVLMPGYQGTQENLRWLAPRLASWGFVVLNVGTTTLLDDPASRGRQISAAGIQLLALGGTSGNPLSGKLDGTLGAVGHSMGGGGVMAALRDDPRFRAGVPTAPYYPNMNFSQVTDPTFFLTCQSDPVAHGNTYAVPWYTTMSRAEKLYVEVPGDHLCPMTGYGDKARQGKWIVSFLSLWLRADTRFGPFLCGPAREADKNNTALVTRWMDTCPF [TEP160]”, the PET hydrolysis in series [1] (setting [12]), in series [1] (setting [4]), in series [1] (setting [5]) and in series [1] (setting [6]) was under 3 in each case. Moreover, the “purified protein yield per well” value in series [2] was determined as 31 µg. In series [3], the melting temperature was 68.5 C.
Turning to “ADLLSQGRPVTASSTENASTPASAAVDGNTGTRWSSAFSDPQWLTVDLGTTATISRVVLRWETAYARRFQIQTSDDGTAWTTIHSATAGTGGVQTLDVTGSGRYVRVHGTQRGTAYGYSLWEFQVYGTRGTTPGEGIPDPSTASLEAAAGPLTTATYTVPDPSGYGSGTVTYPTAGGSYPGVVLMPGYQGTQQNLQWLAPRLASWGFVVLNVGTNTLTDDPASRGRQITAAGTQLLALGAATGNPLSGKVNGTLGAVGHSMGGGGVMAALRDDARFRAGVPTAPYYPNGNFSGVTDPTFFLTCQSDPVAHGNSYALPWYNSMSQSEKLYIEVPGDHLCPMTGSGDKAKQGKWIVSFLSHWLRADTRFTPFLCGPAREADKNDPSLVTRWMDTCPL [TEP036]”, the PET hydrolysis in series [1] (substrate: aFilm, 40 °C, pH 4.5) is under 3; in series [1] (setting [13]) it was under 3; in series [1] (setting [14]), under 3; in series [1] (setting [15]), under 3; in series [1] (substrate: aFilm, 60 °C, pH 4.5) it was under 3; in series [1] (setting [16]), under 3. Further, the PET hydrolysis in series [1] (setting [17]), in series [1] (setting [18]), in series [1] (setting [12]), in series [1] (setting [4]), in series [1] (setting [5]) and in series [1] (setting [6]) was under 3 each time. Moreover, the PET hydrolysis is under 3 in series [1] (substrate: cryPow, 60 °C, pH 4.5); under 3 in series [1] (setting [8]); under 3 in series [1] (setting [9]); under 3 in series [1] (setting [10]). The “purified protein yield per well” value in series [2] came to 230 µg. The melting temperature in series [3] is 51.4 C.
Take “ADNPFQRGPDPTRASVAAQTGPFANASVSVPTGYGFNGGRIYYPTDTSQGTFGAIAISPGYTALFSAELAWMGPWLASHGFVVIGIETNSRNDFDTARGTQLLAALDYLTQQSPVRDRVDPNRLAVSGHSMGGGGALSAASRRSSLKAAVGITPYSPSSNLANDRVPTMIISGQADTVVTPSYALGLYNSLPATTESVYLEVAGGDHGFMVGRSNPVMIRTMLPFVKMFIDNDTRYSQFLCPLADSSGVVTYRSTCPLLPGAPTTPPTTPPTDSPGSAGEIVGTQSGRCIDVPNAARDNGTRVQLYDCNKQPNQSWTYTSNKQLQVYGDRCLDAAGSGNGAAVQIYSCHSQTNQQWNLNSNGTISNVQSGRCLDVWSTANGAQVQLYDCHGQTNQQFRLASRTR [DP061]”: the PET hydrolysis in series [1] (setting [13]) was under 3; in series [1] (setting [14]), under 3; in series [1] (setting [15]) it was under 3; in series [1] (substrate: aFilm, 40 °C, pH 8.5), under 3; in series [1] (setting [16]), under 3; in series [1] (setting [17]) it was under 3. Moreover, the PET hydrolysis in series [1] (setting [18]) was under 3; in series [1] (substrate: aFilm, 60 °C, pH 8.5), under 3; in series [1] (setting [4]) it was 14 ± 2.8; in series [1] (setting [5]), 20 ± 1.4; in series [1] (setting [6]) it was 7.5 ± 5; in series [1] (setting [7]) it was 2 ± 2.8. The PET hydrolysis in series [1] (setting [8]), in series [1] (setting [9]), in series [1] (setting [10]) and in series [1] (setting [11]) was under 3 each time. The “purified protein yield per well” value in series [2] stood at 265 µg. For the same sequence, the melting temperature in series [3] was 59.8 C.
